Test results published in US20160289338A1 (OXFORD BIOTHERAPEUTICS, published 2016).

Columns and labels:
[1] = biological target: T1, human Matriptase (cell-surface) (human, UniProt Q9Y5Y6 1-855); experiment: cell-based or functional assay
T1 sequence: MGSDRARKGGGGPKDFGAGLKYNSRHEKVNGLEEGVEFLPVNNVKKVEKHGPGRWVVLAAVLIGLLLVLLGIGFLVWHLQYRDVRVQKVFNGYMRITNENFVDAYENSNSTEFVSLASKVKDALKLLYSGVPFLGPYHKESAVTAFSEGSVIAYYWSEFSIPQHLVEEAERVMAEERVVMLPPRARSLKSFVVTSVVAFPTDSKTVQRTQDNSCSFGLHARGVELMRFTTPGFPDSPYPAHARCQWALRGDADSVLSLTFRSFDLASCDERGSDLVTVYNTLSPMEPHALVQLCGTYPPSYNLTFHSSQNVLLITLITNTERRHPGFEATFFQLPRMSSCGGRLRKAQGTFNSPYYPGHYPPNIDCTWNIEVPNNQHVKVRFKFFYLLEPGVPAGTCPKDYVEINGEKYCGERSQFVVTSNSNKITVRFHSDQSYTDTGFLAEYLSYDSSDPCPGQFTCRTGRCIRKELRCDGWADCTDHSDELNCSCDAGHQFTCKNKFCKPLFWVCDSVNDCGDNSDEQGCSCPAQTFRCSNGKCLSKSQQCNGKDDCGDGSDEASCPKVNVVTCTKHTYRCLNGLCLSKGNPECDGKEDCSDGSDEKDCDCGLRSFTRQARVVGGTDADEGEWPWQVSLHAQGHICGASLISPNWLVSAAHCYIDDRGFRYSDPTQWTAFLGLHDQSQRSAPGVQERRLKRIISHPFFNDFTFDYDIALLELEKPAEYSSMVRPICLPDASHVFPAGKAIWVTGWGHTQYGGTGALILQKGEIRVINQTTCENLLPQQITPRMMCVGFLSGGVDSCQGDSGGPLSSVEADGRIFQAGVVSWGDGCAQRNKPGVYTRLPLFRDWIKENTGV

[2] = biological target: T1, human Matriptase (cell-surface); experiment: flow cytometry on HT-29 cells, GMFI Facsarray; the legend box prints no unit, nmol/L is the unit of the concentration axis
[3] = biological target: T1, human Matriptase (cell-surface); experiment: flow cytometry on H69 cells, GMFI Facsarray; the legend box prints no unit, nmol/L is the unit of the concentration axis
[4] = biological target: T1, human Matriptase (cell-surface); experiment: flow cytometry on SNU-1 cells, PE GMFI
Procedure: The specificity of antibodies against the Matriptase selected in Example 1 was tested by flow cytometry. To test the ability of the antibodies to bind to the cell surface Matriptase protein, the antibodies were incubated with the Matriptase-expressing cells. Cells were washed in FACS buffer (DPBS, 2% FBS), centrifuged and resuspended in 100 μl of the diluted primary Matriptase antibody (also diluted in FACS buffer). The antibody-cell line complex was incubated on ice for 60 min and then washed twice with FACS buffer as described above. The cell-antibody pellet was resuspended in 100 μl of the diluted secondary antibody (also diluted in FACS buffer) and incubated on ice for 60 min on ice. The pellet was washed as before and resuspended in 200 μl FACS buffer. The samples were loaded onto the BD FACScanto II flow sytometer and the data analyzed using the BD FACSdiva software.

B1: Matriptase_A1 (antibody, V domains shown)
VH: EVQLLESGGGLVQPGGSLRLSCAASGFTFRNYDMSWVRQAPGKGLEWVSSISYSGGSTYYADSVKGRFTISRDNSKNTLSLQMNSLRAEDTAVYYCAKRGATPFDYWGQGSLVTVSS
VL: not shown
notes: Fully human monoclonal IgG from a hybridoma of an HCo12 HuMAb Mouse; supernatants were screened for human gamma, kappa antibodies; a human IgG1 isotype control was used in the ADCC assay
[1]
  EC50, MabZAP internalization assay, H69 cells: 0.074 nM
  EC50, MabZAP internalization assay, HT-29 cells: 0.183 nM
[2]
  EC50: 0.222 nM
[3]
  EC50: 3.45 nM
[4]
  EC50 (read off the curve): ~0.5 nM
